The text below walks through data of the nanobody polyreactivity screen of Harvey et al. (2022).

A short description of this data set: yeast display, Sf9 membrane polyspecificity reagent, FACS + sequencing; frameworks hold sequencing errors. The essentials:
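Synthetic nanobody libraries on Saccharomyces cerevisiae BJ5465 were galactose-induced for 36–48 hours, stained 1 hour at 4 °C with 10% biotinylated, detergent-solubilized Sf9 membrane reagent and enriched on streptavidin microbeads. FACS then separated cells into low and high (top ~1%) gates by anti-HA (expression) and streptavidin (reagent binding) fluorescence. Genes were colony-PCR amplified, MiSeq 2 × 250 sequenced and CDR-length filtered. A clone's polyreactivity label is that of its gate of origin.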
Regarding “QVQLVESGGGLVQAGGSLRLSCAASGSTFYVYAMGWYRQAPGKERELVAAINFNGGGTYYADSVKGRFTISRDNAKNTVYLQMNSLKPEDTAVYYCYYLYNYWGQGTQVTVSS”, the “polyreactivity (PSR sort gate)” value is recorded as “low polyreactivity”.

On to “QVQLVESGGGLVQAGGSLRLSCAASGSTFYVYAMGWYRQAPGKERELVAAISKRGGTTYYADSVKGRFTISRDNAKNTVYLQMNSLKPEDTAVYYCAADVRSPSAGYQGGYWGQGTQVTVSS”, for which the “polyreactivity (PSR sort gate)” value is recorded as “high polyreactivity”. For the sequence “QVQLVESGGGLVQAGGSLRLSCAASGSTFYVYAMGWYRQAPGKERELVAAITTGGSTYYADSVKGRFTISRDNAKNTVYLQMNSLKPEDTAVYYCAADDPDPYDVPSYDYWGQGTQVTVSS”, the “polyreactivity (PSR sort gate)” value is given as “low polyreactivity”. The entry for “QVQLVESGGGLVQAGGSLRLSCAASGSTFYWYAMGWYRQAPGKERELVAVITVRGGSTYYADSVKGRFTISRDNAKNTVYLQMNSLKPEDTAVYYCAAEPTSYLYKYWYDYWGEGTQVTVSS” is “low polyreactivity”; for “QVQLVESGGGLVQAGGSLRLSCAASGSTFYWYAMGWYRQAPGKERELVDDITFSSGGTYYADSVKGRFTISRDNAKNTVYLQMNSLKPEVTADYYCATEYSLWYTRDWQRYEYWGQGTQVTVSS” it is “high polyreactivity”. With “QVQLVESGGGLVQAGGSLRLSCAASGSTFYWYTMGWYRQAPGKERELVARISSSGSTNYADSVKGRFTISRDNAKNTVYFQMNSLKPEDTAVYYCNKDWIYRGYDYWGQGTQVTVSS”, the “polyreactivity (PSR sort gate)” value is reported as “high polyreactivity”.

For the sequence “QVQLVESGGGLVQAGGSLRLSCAASGSTFYWYTMGWYRQAPGKERELVATINYSGGSTYYADSVKGRFTISRDNAKNTVYLQMNSLKPEDTAVYYCNKQVYVGWGSDYWGQGTQVTVSS”, the “polyreactivity (PSR sort gate)” value is on record as “low polyreactivity”. The same measure for “QVQLVESGGGLVQAGGSLRLSCAASGSTFYYGMGWYRQAPGKERELVAAISSRGGTTYYADSVKGRFTISRDNAKNTVYLQMNSLKPEDTAVDYCAAPVPYYVPRRNEGDYWGQGTQVTVSS”: “low polyreactivity”. Consider “QVQLVESGGGLVQAGGSLRLSCAASGSTFYYNAMGGYRQAPGKEWELVATITSAGRTNYADSVKGRFTISRVNAKNTDYLQMNSLKPEDTAVYYCNARYRLSRYNYWGQGTQVTVSS”, for which the “polyreactivity (PSR sort gate)” value is listed as “low polyreactivity”.

Regarding “QVQLVESGGGLVQAGGSLRLSCAASGSTFYYNAMGWYRQAPGKERELVAAISGSGGSTYYADSVKGRFTISRDNAKNTVYLQMNSLKPEDTAVYYCAALYGPGREYDYWGQGTQVTVSS”, the “polyreactivity (PSR sort gate)” value is given as “low polyreactivity”. For the sequence “QVQLVESGGGLVQAGGSLRLSCAASGSTFYYNAMGWYRQAPGKERELVADISWRGGITYYADSVKGRFTISRDNAKNTVYLQMNSLKPEDTAVYYCNADAESFDDGYWGQGTQVTVSS”, the “polyreactivity (PSR sort gate)” value is recorded as “low polyreactivity”. The same measure for “QVQLVESGGGLVQAGGSLRLSCAASGSTFYYNDMGWYRQAPGKERELVAAIRTSGSTNYADSVKGRFTISRDYAKNNVYLQMNSLKPEDTAVYYCNAVVRHWFPGWYGRGDDYWGQGTQVTVSS”: “low polyreactivity”; for “QVQLVESGGGLVQAGGSLRLSCAASGSTFYYNTMGWYRQAPGKERELVAAISRSGGSTYYADSVKGRFTISRDNAKNTVYLQMNSLKPEDTAVYYCAARIIGARNLYGYWGQGTQVTVSS”: “high polyreactivity”; for “QVQLVESGGGLVQAGGSLRLSCAASGSTFYYYAMGRYRQAPGKEMELVATISRGGSTNYADSVKGRFTISRDNAKNTVYLQMNSLKPEDTAVYYCAIGYLRPYGSHRESTPYDYWGEGTQVTVSS”: “low polyreactivity”. In the case of “QVQLVESGGGLVQAGGSLRLSCAASGSTFYYYAMGWYRQAPGKEREFVASISSRGTSTYYADSVKGPFTISRDNAKNTVYLQMNSLKPEDTAVYYCAARGWGPTRAYDYWGQGTQVTVSS”, the “polyreactivity (PSR sort gate)” value is “high polyreactivity”. Turning to “QVQLVESGGGLVQAGGSLRLSCAASGSTFYYYAMGWYRQAPGKERELVAAIDWSGESTYYADSVKGRFTISRDNAKNTVYLQMNSLKPEDTAVYYCAAVRSAQRWRRYYYWGQGTQVTVSS”, the “polyreactivity (PSR sort gate)” value was “low polyreactivity”. The same measure for “QVQLVESGGGLVQAGGSLRLSCAASGSTFYYYAMGWYRQAPGKERELVAAINYNGGSTHYADSVKGRFTISRDNAKNTVYLQMISLKPEDTAVYYCAAKYRLSYTHGYWGQGSQVTVSS”: “low polyreactivity”; for “QVQLVESGGGLVQAGGSLRLSCAASGSTFYYYAMGWYRQAPGKERELVAAISGGGNTKYADSVKGRFTISRDNAKNTVYLQMNSLKPEDTAVYYCAARLAYWYYYAWRGPYYYWGQGPQVTVSS”: “high polyreactivity”; for “QVQLVESGGGLVQAGGSLRLSCAASGSTFYYYAMGWYRQAPGKERELVAAISRGGSTYYADSVKGRFTISRDNAKNTVYLQMNSLKPEDTAVYYCAVDARPYRQIYLYEYWGQGTQVTVSS”: “low polyreactivity”. The same measure for “QVQLVESGGGLVQAGGSLRLSCAASGSTFYYYAMGWYRQAPGKERELVAAITLRGTSTYYADSVKGRFTISRDNAKNTVYLQMNRLKPEDTAVYYCAVETYYSIFDIYDYWGQGTQVTVSS”: “low polyreactivity”; for “QVQLVESGGGLVQAGGSLRLSCAASGSTFYYYAMGWYRQAPGKERELVASIRSRDGSTRYADSVKGRFTISRDNAKNTVYLQMNSLKPEDTAVYYCAAVGYRRVDAGSSASRYDYWGQGTQVTVSS”: “high polyreactivity”; for “QVQLVESGGGLVQAGGSLRLSCAASGSTFYYYAMGWYRQAPGKERELVAVITFSGGSTNYADSVKGRFTISRDNAKNTVYLQMNSLKPEDTAVYYCAADTYSYRYSNDYWGQGTQVTVSS”: “low polyreactivity”.

For the sequence “QVQLVESGGGLVQAGGSLRLSCAASGSTFYYYAMGWYRQAPGKESELVAAISPSGDSTYNADSVKGRFTISRENSKNTVYLQMNSLKPEDTAVYYFAAQYYFYPQEFDDWGQGTQVTVSS”, the “polyreactivity (PSR sort gate)” value is on record as “low polyreactivity”. Consider “QVQLVESGGGLVQAGGSLRLSCAASGSTFYYYAMGWYSQAPGKERDLVAVISWGGGSTYYADSVKGRFTISRDNAKNTVYLQMNSLKPEDTAVYYCAAVYDAYQTTDEYDYWGQGTQVTVSS”, for which the “polyreactivity (PSR sort gate)” value is reported as “low polyreactivity”.

Consider “QVQLVESGGGLVQAGGSLRLSCAASGSTFYYYVRGWYRQAPGKERELVAAINSGGSTYYADSVKGRFTISRDNAKNTVYLQMNSLKPEDTAVYYCAKSWSYWYQYYYWGQGSQVTVSS”, for which the “polyreactivity (PSR sort gate)” value is “low polyreactivity”. In the case of “QVQLVESGGGLVQAGGSLRLSCAASGSTHNQNAMGWSRQAPGKETELVAAISSNGGTTYYADSVKWRFTISRDNAKNTVYLQMNSLKQEDTAVYYCAADWDRYVPRSYYRVSWYDYWGQGTQVTVSS”, the “polyreactivity (PSR sort gate)” value is listed as “low polyreactivity”.

Consider “QVQLVESGGGLVQAGGSLRLSCAASGSTIDTYAMGWYRQAPGKERELVAAIRYTGGRTYYADSVKGRCTISSDNAKNTVYLHMNSLKPEDTAVYYCNADGTKWVRETYDYWGQGTQVTVSS”, for which the “polyreactivity (PSR sort gate)” value is given as “low polyreactivity”. The same measure for “QVQLVESGGGLVQAGGSLRLSCAASGSTIEDNTMGWYRQAPGKERELVAAISNSGGSTYYADSVKGRFTISRDYAKNTVYLQMISLKPEDTAVYYCAADFYDPFDYWGQGTQVTVSS”: “low polyreactivity”; for “QVQLVESGGGLVQAGGSLRLSCAASGSTIEDYAMGWYRQAPGKERELVAAISWRSDITYYADSVKGRFTISRDNAKNTVYLQMNSLKPEDTAVYYCAADNSYHWLDREFDYEFDYWGQGTQVTVSS”: “high polyreactivity”; for “QVQLVESGGGLVQAGGSLRLSCAASGSTIFENVMGWYRQAPGKEREFVAAINTSGGSTYYADSVKGRFTISRDNAKNTVYLQMNILKPEDTAVYYCARDSYWELDYWGQGTQVTVSS”: “low polyreactivity”. Consider “QVQLVESGGGLVQAGGSLRLSCAASGSTIFGNVMGWYRQAPGKERELVAVITNRGGSTYYADSVKGRFTISRDNAKNTVYLQMNSLKPEDTAVYYCATRSRPRSYYYWGQGTQVTVSS”, for which the “polyreactivity (PSR sort gate)” value is recorded as “high polyreactivity”. In the case of “QVQLVESGGGLVQAGGSLRLSCAASGSTIFGNVMGWYRQAPGKERELVAVITNRGGSTYYADSVKGRFTISRDNAKNTVYLQMNSLTPEDTAVYYCNARPLYHFWYYSGEEYGYWGQGTQVSVSS”, the “polyreactivity (PSR sort gate)” value was “high polyreactivity”. With “QVQLVESGGGLVQAGGSLRLSCAASGSTIFSYAMGWYRQAPGKERELVAAISWIDDGTYYADSVKGRFTISRDNAKNTVYLQMNSLKPEDTAVYYCAADIGAYRTWDYEYWGQGTQVTVSS”, the “polyreactivity (PSR sort gate)” value is on record as “low polyreactivity”. As for “QVQLVESGGGLVQAGGSLRLSCAASGSTIGAYAMGWYRQAPGKERELVAAITFSVGSTYYADSVKGRFTISRDNAKNTVYLQMNSLKPEDTAVYYCAADYYIYRSKYYQSTIQGYYYWGQGTQVTVSS”, the “polyreactivity (PSR sort gate)” value is listed as “high polyreactivity”. The same measure for “QVQLVESGGGLVQAGGSLRLSCAASGSTIGGYAMGWYRQAPGKERELVAAISWDDVRTYYADSVKGRFTISRDNAKNTVYLLMNSLKPEDTAVYYCNTDGLIAIRGLWWVEYDYWGQGTQVTVSS”: “low polyreactivity”; for “QVQLVESGGGLVQAGGSLRLSCAASGSTIGGYAMGWYRQAPGKERELVAAITRSGGRTYYADSVKGRFTISRDNAKKTVYLQMNSLKPEDTAVYFCATLVTNARYDSWGQGTQVTVSS”: “high polyreactivity”; for “QVQLVESGGGLVQAGGSLRLSCAASGSTIGSYAMRLSRQAPGTERELVAVITSDGRTNYADSVKGRFTISRDNAKNTVYLQMNSLKPEDTAVYYCAAGYGRWRYGTGVYDNYYYWGQGTQVTVSS”: “low polyreactivity”. As to “QVQLVESGGGLVQAGGSLRLSCAASGSTINKYAMGWYRQAPGKERELVAAISRSGGSTNYADSVKGRFTISRDNAKNTVYLQMNSLKPEDTAVYYCNAGYGRWQRHDYWGQGTQVTVSS”, the “polyreactivity (PSR sort gate)” value was “high polyreactivity”.

Turning to “QVQLVESGGGLVQAGGSLRLSCAASGSTINQYPMGWYRQAPGKERDLVAAITRRGGSTYYADSVKGRCTISSDNAKNTVYLQLNSLKPEDTAVYYCAAAYPYTTVSYDYWGQGTQVTVSS”, the “polyreactivity (PSR sort gate)” value is “high polyreactivity”. The same measure for “QVQLVESGGGLVQAGGSLRLSCAASGSTIPGNAMGWYRQAHGKERELVASISGGGDSTYYADSVKGRFTISRDNAKNTVYLQMKSLKPEDTAVYYCAADYRQEPGYTGYYYLGQGTQVTVSS”: “low polyreactivity”; for “QVQLVESGGGLVQAGGSLRLSCAASGSTIPPNAMGWYRQAPGKERELVAVISNGGSNTRYADSVKGRFTISRDNAKNTVYLQMNRLKPEDTAVYYCAADYEYSGYGYWGQGTQVTVSS”: “high polyreactivity”.
